The values below are quoted from earlier work in article PMC12612446.

In general, Kd refers to a measure of binding affinity in units of concentration.

The target in this data set is HER2 (Homo sapiens) (UniProt P04626).

Turning to trastuzumab, the Kd is 0.58 nM.
